For this test, the target named is T1, MBP-Cdc12(1–765-6A) (S. pombe, UniProt Q10059 1-765, T20A | T22A | S64A | T95A | T151A | S463A).
T1 sequence (looked up): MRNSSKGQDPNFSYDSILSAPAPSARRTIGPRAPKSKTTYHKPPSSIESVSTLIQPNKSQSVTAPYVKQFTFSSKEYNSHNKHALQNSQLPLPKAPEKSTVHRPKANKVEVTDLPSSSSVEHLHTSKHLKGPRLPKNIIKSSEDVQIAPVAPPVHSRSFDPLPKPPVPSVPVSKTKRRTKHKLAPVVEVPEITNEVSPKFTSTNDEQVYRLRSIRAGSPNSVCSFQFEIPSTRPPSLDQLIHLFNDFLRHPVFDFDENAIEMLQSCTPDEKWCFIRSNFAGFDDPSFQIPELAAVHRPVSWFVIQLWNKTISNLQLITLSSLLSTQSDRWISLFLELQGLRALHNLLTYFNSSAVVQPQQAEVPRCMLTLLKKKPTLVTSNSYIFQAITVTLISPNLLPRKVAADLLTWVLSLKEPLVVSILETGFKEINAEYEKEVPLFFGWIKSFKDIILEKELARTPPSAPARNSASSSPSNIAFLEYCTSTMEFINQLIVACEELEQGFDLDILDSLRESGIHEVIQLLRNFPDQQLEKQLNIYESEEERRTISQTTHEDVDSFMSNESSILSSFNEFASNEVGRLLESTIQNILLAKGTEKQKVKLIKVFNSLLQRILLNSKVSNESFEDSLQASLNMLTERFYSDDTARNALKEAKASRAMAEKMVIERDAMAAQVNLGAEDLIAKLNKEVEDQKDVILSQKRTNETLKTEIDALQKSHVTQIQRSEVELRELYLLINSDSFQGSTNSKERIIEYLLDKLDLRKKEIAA
In words: pull-down.

B1: Cdc15 F-BAR(19–312) (domain or fragment, S. pombe, UniProt Q09822 19-312, looked up)
chain: SVKFRDNFWGSEDAGMDALMSRTKSSLSVLESIDEFYAKRASIEREYASKLQELAASSADIPEVGSTLNNILSMRTETGSMAKAHEEVSQQINTELRNKIREYIDQTEQQKVVAANAIEELYQKKTALEIDLSEKKDAYEYSCNKLNSYMRQTKKMTGRELDKYNLKIRQAALAVKKMDAEYRETNELLLTVTREWIDRWTEVCDAFQHIEEYRLEFLKTNMWAYANIISTACVKDDESCEKIRLTLENTNIDEDITQMIQNEGTGTTIPPLPEFNDYFKENGLNYDIDQLISK
Consider B1, for which the binding result was “binds”.
